According to patent publication US20260248972A1, “DUAL RECEPTOR TARGETING RADIOLIGANDS AND USES THEREOF RELATED APPLICATIONS” (priority 2022, published 2026):
Read-outs that look alike come from different tables or passages of the source.

Legend:
SSTR2 = biological target: T1, SSTR2 (Rattus norvegicus, UniProt P30680); test: Competitive cell-binding assay on AR42J cells with 125I-C1 as competitive ligand
T1 construct: host or cells: AR42J cells
Protocol: (§1) AR42J cells (ATCC) were maintained in RPMI-1640 medium (Gibco) supplemented with 15% fetal bovine serum (Gibco) and 1% penicillin-streptomycin (BI) at 37° C. in a humidified incubator with 5% CO2. The culture medium was replaced with fresh medium every 2-3 days. Experiments were performed with cells at 70-80% confluence.
(§2) Binding Affinity Tested by Using ^125I-Labeled Competitive Ligands.
(§3) The binding affinities of test compounds were determined by a competitive cell-binding assay using ^125I-C1 and ^125I-C3 as the competitive ligand. The suspended AR42J cells at a density of 1~3×10^6 cells/mL in binding buffer (RPMI-1640 medium supplemented with 0.25% bovine serum albumin) were transferred to a MultiScreen-DV Filter Plate (Millipore) with 100 μL per well except the blank group where the binding buffer was used instead. The cells were then incubated with ^125I-C1 and ^125I-C3 (0.02 μCi/well) in the presence of increasing concentrations (0-10000 nM) of test compounds at 37° C. for 1 h (n=3). The final volume in each well was maintained at 200 μL and insufficient volume was adjusted by the binding buffer. After the 1 h incubation, unbound ^125I-competitive ligands were removed by filtration using a Multiscreen vacuum manifold (Millipore) followed by rinses with the binding buffer (3 times). The filters were collected, and their radioactivity were individually measured by γ counter (2480 WIZARD2, PerkinElmer). The best-fit IC50value (inhibitory concentration when 50% of the bound ^125I-C1 and ^125l I-C3 on cells were displaced) of test compounds were calculated by fitting the data with nonlinear regression using GraphPad Prism 8.0.1.

CCK2R = biological target: T2, CCK2R (Rattus norvegicus, UniProt P30553); test: Competitive cell-binding assay on AR42J cells with 125I-C3 as competitive ligand
T2 construct: host or cells: AR42J cells
T2 sequence (P30553 1-452): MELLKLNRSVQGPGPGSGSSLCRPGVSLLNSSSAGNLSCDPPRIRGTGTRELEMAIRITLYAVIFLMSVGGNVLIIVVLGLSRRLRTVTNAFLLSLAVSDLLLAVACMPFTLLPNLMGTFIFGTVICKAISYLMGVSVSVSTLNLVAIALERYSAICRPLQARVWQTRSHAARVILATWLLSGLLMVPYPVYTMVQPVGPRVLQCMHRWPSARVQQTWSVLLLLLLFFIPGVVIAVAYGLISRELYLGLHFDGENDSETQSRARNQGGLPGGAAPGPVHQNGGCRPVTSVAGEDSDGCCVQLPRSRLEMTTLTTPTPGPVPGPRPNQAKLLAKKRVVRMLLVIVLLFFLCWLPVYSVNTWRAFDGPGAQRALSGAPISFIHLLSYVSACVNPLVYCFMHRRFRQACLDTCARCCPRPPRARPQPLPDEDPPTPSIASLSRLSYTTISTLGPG
Protocol: as §1, §2, §3

[1] = Biodistribution study of 177Lu-labeled compounds in AR42J tumor-bearing mice; details: BALB/c nude, mouse, in vivo, iv, total radioactivity
Summary of the method: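 Tissue uptake given as % ID and % ID/g from γ counting of organs taken 4, 24 and 72 h after injection into BALB/c nude mice carrying subcutaneous AR42J xenografts (0.05-0.50 g). Tracers were ^177Lu-labelled at 95° C for 15 min in pH 4.5 NaOAc buffer and used neat or diluted in PBS containing 3 mg/mL ascorbate.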

T1 sequence (P30680 whole entry): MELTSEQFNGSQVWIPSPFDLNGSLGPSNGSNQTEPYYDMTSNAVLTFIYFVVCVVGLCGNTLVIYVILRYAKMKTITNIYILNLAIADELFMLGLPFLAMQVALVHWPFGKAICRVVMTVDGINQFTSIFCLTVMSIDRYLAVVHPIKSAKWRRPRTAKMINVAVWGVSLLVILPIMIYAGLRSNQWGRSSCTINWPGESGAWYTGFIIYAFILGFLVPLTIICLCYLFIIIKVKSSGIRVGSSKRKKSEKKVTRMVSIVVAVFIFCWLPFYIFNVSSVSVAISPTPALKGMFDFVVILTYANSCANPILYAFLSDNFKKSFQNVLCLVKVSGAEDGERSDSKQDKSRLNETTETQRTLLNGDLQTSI

C[C@@H](O)[C@H](NC(=O)[C@@H]1CSSC[C@H](NC(=O)[C@@H](Cc2ccccc2)NC(=O)[C@H](CCCCNC(=O)COCCOCCNC(=O)c2cccc(NC(=O)N[C@@H]3CN(C4CCCCC4)c4ccccc4N(CC(=O)C(C)(C)C)C3=O)c2)NC(=O)CN2CCN(CC(=O)O)CCN(CC(=O)O)CCN(CC(=O)O)CC2)C(=O)N[C@@H](Cc2ccc(O)cc2)C(=O)N[C@H](Cc2c[nH]c3ccccc23)C(=O)N[C@@H](CCCCN)C(=O)N[C@@H]([C@@H](C)O)C(=O)N1)C(=O)O [Compound I-36, DOTA-K(-OEG-Z360)-f[CYwKTC]T-OH]
IC50 (SSTR2): 1.6 nM
Relative Binding Affinity SSTR2 (SSTR2): 1.76
IC50 (CCK2R): 4.2 nM
Relative Binding Affinity CCK2R (CCK2R): 4.0
tissue to tissue ratio at 24 h ([1]; T/K Tumor/Kidney ratio, 177Lu-labeled, 24 hours after dosing): 2.9
tissue to tissue ratio at 24 h ([1]; T/L Tumor/Liver ratio, 177Lu-labeled, 24 hours after dosing): 4.3
tissue to tissue ratio at 24 h ([1]; T/P Tumor/Pancreas ratio, 177Lu-labeled, 24 hours after dosing): 13
tissue to tissue ratio at 24 h ([1]; T/Sp Tumor/Spleen ratio, 177Lu-labeled, 24 hours after dosing): 36
tissue to tissue ratio at 24 h ([1]; T/St Tumor/Stomach ratio, 177Lu-labeled, 24 hours after dosing): 11
tissue uptake at 24 h ([1]; uptake Kidney, 177Lu-labeled, 24 hours after dosing (Table 5)): 7.4 %ID/g
tissue uptake at 24 h ([1]; uptake Liver, 177Lu-labeled, 24 hours after dosing (Table 5)): 5 %ID/g
tissue uptake at 24 h ([1]; uptake Pancreas, 177Lu-labeled, 24 hours after dosing (Table 5)): 1.6 %ID/g
tissue uptake at 24 h ([1]; uptake Spleen, 177Lu-labeled, 24 hours after dosing (Table 5)): 0.6 %ID/g
tissue uptake at 24 h ([1]; uptake Stomach, 177Lu-labeled, 24 hours after dosing (Table 5)): 2 %ID/g
tissue uptake at 24 h ([1]; uptake Tumor, 177Lu-labeled, 24 hours after dosing (Table 5)): 21.6 %ID/g

C[C@@H](O)[C@H](NC(=O)[C@@H]1CSSC[C@H](NC(=O)[C@@H](Cc2ccccc2)NC(=O)[C@H](CCCCNC(=O)CC[C@H](NC(=O)CNC(=O)c2cccc(NC(=O)N[C@@H]3CN(C4CCCCC4)c4ccccc4N(CC(=O)C(C)(C)C)C3=O)c2)C(=O)O)NC(=O)COCCOCCNC(=O)CCC(C(=O)O)N2CCN(CC(=O)O)CCN(CC(=O)O)CCN(CC(=O)O)CC2)C(=O)N[C@@H](Cc2ccc(O)cc2)C(=O)N[C@H](Cc2c[nH]c3ccccc23)C(=O)N[C@@H](CCCCN)C(=O)N[C@@H]([C@@H](C)O)C(=O)N1)C(=O)O (stereo partly drawn) [Compound I-19, DOTAGA- OEG- K(-gE- G- Z360)- f[CYwKTC]T- OH]
Relative Binding Affinity SSTR2 (SSTR2; based on mean IC50, C-1 = 1.00): 0.46
Relative Binding Affinity CCK2R (CCK2R; based on mean IC50, C-2 = 1.00): 270
tissue to tissue ratio at 24 h ([1]; T/K Tumor/Kidney ratio): 0.6
tissue to tissue ratio at 24 h ([1]; T/L Tumor/Liver ratio): 35
tissue to tissue ratio at 24 h ([1]; T/P Tumor/Pancreas ratio): 15
tissue to tissue ratio at 24 h ([1]; T/Sp Tumor/Spleen ratio): 46
tissue to tissue ratio at 24 h ([1]; T/St Tumor/Stomach ratio): 4.3
tissue uptake at 24 h ([1]; uptake Kidney): 51.6 %ID/g
tissue uptake at 24 h ([1]; uptake Liver): 0.96 %ID/g
tissue uptake at 24 h ([1]; uptake Pancreas): 2.07 %ID/g
tissue uptake at 24 h ([1]; uptake Spleen): 0.68 %ID/g
tissue uptake at 24 h ([1]; uptake Stomach): 7.24 %ID/g
tissue uptake at 24 h ([1]; uptake Tumor): 31.3 %ID/g

C[C@@H](O)[C@H](NC(=O)[C@@H]1CSSC[C@H](NC(=O)[C@@H](Cc2ccccc2)NC(=O)COCCOCCNC(=O)COCCOCCNC(=O)[C@H](CCCCNC(=O)c2cccc(NC(=O)N[C@@H]3CN(C4CCCCC4)c4ccccc4N(CC(=O)C(C)(C)C)C3=O)c2)NC(=O)CN2CCN(CC(=O)O)CCN(CC(=O)O)CCN(CC(=O)O)CC2)C(=O)N[C@@H](Cc2ccc(O)cc2)C(=O)N[C@H](Cc2c[nH]c3ccccc23)C(=O)N[C@@H](CCCCN)C(=O)N[C@@H]([C@@H](C)O)C(=O)N1)C(=O)O [Compound I-39, DOTA-K(Z360)-OEG-OEG-f[CYwKTC]T-OH]
IC50 (SSTR2; AR42J cells, 125I-C1 competitive ligand, 37° C. 1 h, read-out: SSTR2/IC50): 0.367 nM
Relative Binding Affinity SSTR2 (SSTR2; based on mean IC50, C-1 = 1.00): 7.67
IC50 (CCK2R; AR42J cells, 125I-C3 competitive ligand, 37° C. 1 h, read-out: CCK2R/IC50): 4.9 nM
Relative Binding Affinity CCK2R (CCK2R; based on mean IC50, C-2 = 1.00): 3.4
tissue to tissue ratio at 24 h ([1]; T/K Tumor/Kidney ratio): 2.3
tissue to tissue ratio at 24 h ([1]; T/L Tumor/Liver ratio): 9.9
tissue to tissue ratio at 24 h ([1]; T/P Tumor/Pancreas ratio): 29
tissue to tissue ratio at 24 h ([1]; T/Sp Tumor/Spleen ratio): 89
tissue to tissue ratio at 24 h ([1]; T/St Tumor/Stomach ratio): 5.9
tissue uptake at 24 h ([1]; uptake Kidney): 12 %ID/g
tissue uptake at 24 h ([1]; uptake Liver): 2.78 %ID/g
tissue uptake at 24 h ([1]; uptake Pancreas): 0.94 %ID/g
tissue uptake at 24 h ([1]; uptake Spleen): 0.31 %ID/g
tissue uptake at 24 h ([1]; uptake Stomach): 4.63 %ID/g
tissue uptake at 24 h ([1]; uptake Tumor): 27.5 %ID/g

C[C@@H](O)[C@@H]1NC(=O)[C@H](CCCCN)NC(=O)[C@@H](Cc2c[nH]c3ccccc23)NC(=O)[C@H](Cc2ccc(O)cc2)NC(=O)[C@@H](NC(=O)[C@@H](Cc2ccccc2)NC(=O)[C@H](CCCCNC(=O)[C@H](CCC(=O)O)NC(=O)c2cccc(NC(=O)N[C@@H]3CN(C4CCCCC4)c4ccccc4N(CC(=O)C(C)(C)C)C3=O)c2)NC(=O)CN2CCN(CC(=O)O)CCN(CC(=O)O)CCN(CC(=O)O)CC2)CSSC[C@@H](C(=O)N[C@H](CO)[C@@H](C)O)NC1=O [Compound I-6, DOTA-K(-E-Z360)-f[CYwKTC]-Thr(ol)]
Relative Binding Affinity SSTR2 (SSTR2; based on mean IC50, C-1 = 1.00): 0.20
Relative Binding Affinity CCK2R (CCK2R; based on mean IC50, C-2 = 1.00): 19.7
